Data as given in the supplement of paper PMC12764529.
± gives the half width of the 95% confidence interval.

Tests used:
[1] = folding stability dG unfold from trypsin proteolysis; higher = more stable
Procedure, shortened: (§1)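 Unfolding free energy was derived, per protease or combined, by relating Bayesian-fitted K50 values from sequencing counts to a sequence-predicted unfolded-state K50 and a shared folded-state K50. The underlying digests exposed cysteine-free mini-proteins under 80 residues, in a PA-tagged cDNA display construct, to trypsin and chymotrypsin at 11 threefold-diluted concentrations and to a no-protease condition. A filter kept only designs with AlphaFold2 dimer inter-PAE above 15.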

[2] = folding stability dG unfold from chymotrypsin proteolysis; higher = more stable
Procedure, shortened: as §1

[3] = folding stability dG unfold (combined trypsin and chymotrypsin); higher = more stable
Procedure, shortened: as §1

Sequence	folding stability dG unfold [1]	folding stability dG unfold [2]	folding stability dG unfold [3]
SAGGSAGGSAGKVIKLEELKKKFPNMSPEELAAFFKKLGYKVEVVKVGDVPYVFLSPGEKSAGGSAGGSAGG [r11_707_TrMRF]	2.2 ± 0.065 kcal/mol	3.676 ± 0.02 kcal/mol	3.33 ± 0.049 kcal/mol
SAETVVTPRRSTLPDGTRLEEDVVTLPDGTTVTPVRVVRRDPETGREVVEFWVRTTDPATGTTTTTPLPSAG [r14_324_JUSTAS]	-0.198 ± 0.12 kcal/mol	1.72 ± 0.059 kcal/mol	1.23 ± 0.051 kcal/mol
SAGGSAGGSAGGTITIPIYLDDKWITITRIELSPPDGKIKIEFTFNNRPREFDIPIPPGASAGGSAGGSAGG [r7_477_TrROS]	1.9 ± 0.049 kcal/mol	2.71 ± 0.074 kcal/mol	2.36 ± 0.11 kcal/mol
SAGMMKVRIKIEVTRVEYDEETGELKEETRTIEIPIEAESEEEAEELAKKLAEELPEEEVKIVEIEPLSAGG [r19_209_TrROS_Hall]	1.1 ± 0.096 kcal/mol	1.42 ± 0.11 kcal/mol	1.22 ± 0.22 kcal/mol
SAGGSAGGSAGGMEIREVEVTFVPPDGTTTTRKVLATSEEEAKAILEEELPPDWEIILRSAGGSAGGSAGGS [r10_145_JUSTAS]	-0.122 ± 0.11 kcal/mol	0.831 ± 0.034 kcal/mol	0.55 ± 0.082 kcal/mol
SAGGSAGGSAGVRDPDNGEPMPPGDWVIRHRDNEKPHHFLIPPNNAEEFAEDNGIEIHKVSAGGSAGGSAGG [r17_109_TrROS]	1.42 ± 0.23 kcal/mol	1.24 ± 0.14 kcal/mol	1.32 ± 0.35 kcal/mol
SAGGLLPALLAPGFRKPPELPLVVVEAPIEEAVALAKENPSLGVLLVRVGGKLYLIDPKTGKVAPLGSAGGS [r16_214_TrMRF]	0.767 ± 0.018 kcal/mol	1.6 ± 0.033 kcal/mol	1.32 ± 0.056 kcal/mol
SAGGSAAGAERVTYNYMIPNDGKWFMIRITIYRFEVKRDPEDNKYKLDLPPGDQLFINTEIMWFPNSAGGSA [r15_1040_TrROS]	2.72 ± 0.12 kcal/mol	4.14 ± 0.076 kcal/mol	3.73 ± 0.24 kcal/mol
SAGGKPTQTITITLKDGRTLTIKVGQTVTITLDNGKTITVTVKDATITVKDGKVTITVNGKTYTFTVKSAGG [r13_643_TrROS_Hall]	3.45 ± 0.24 kcal/mol	4.73 ± 0.13 kcal/mol	4.62 ± 0.23 kcal/mol
SAGVLTIEVQMPADDAEEFAEEVADTIARRLGFPPGFKIKVKVDRFDPDNGYVRVEATIEFPLPPNQPPSAG [r5_537_TrROS]	2.61 ± 0.12 kcal/mol	2.19 ± 0.059 kcal/mol	2.43 ± 0.099 kcal/mol
SAGGPKPILILPKNGKTETIPVPESMTLEEIIEIVKKAAEKYGFEKISYDPEKKVVTVYLKGKVIVTGSAGG [r13_572_TrMRF]	1.25 ± 0.015 kcal/mol	2.625 ± 0.017 kcal/mol	2.27 ± 0.064 kcal/mol
SAGGPKVYLTDIVTTLPDGTVVMIGEIELPDGTPLIAITTIYKDGTVKVFIYDPNGKLIAEIEIKPKPSAGG [r13_903_TrMRF]	2.15 ± 0.085 kcal/mol	3.09 ± 0.032 kcal/mol	2.78 ± 0.064 kcal/mol
SAGGSAGGSAGKYEVTKIEVVKNEDGSEYLRVTIKVDGKEITITIPLEDAENIKIEIKPPSAGGSAGGSAGG [r17_64_TrROS_Hall]	2.69 ± 0.086 kcal/mol	3.59 ± 0.036 kcal/mol	3.38 ± 0.12 kcal/mol
SAGGSAGGSAGGMKKGQKFKPVKKVKLRFKVKVKVKVGGKEYEFEAEVELEVEFYVLEDSAGGSAGGSAGGS [r10_758_TrROS_Hall]	2.55 ± 0.2 kcal/mol	4.41 ± 0.17 kcal/mol	3.68 ± 0.25 kcal/mol
SAGGSAGGKKLEELKEKLKKLKPKPELEVEIKIVMSKEEAEKLAKELEKLPNIKKVRVEILEPDSAGGSAGG [r6_284_TrROS_Hall]	-0.155 ± 0.069 kcal/mol	-0.0934 ± 0.11 kcal/mol	0.0502 ± 0.17 kcal/mol
SAGGPITITYDEETGVLTITITVPSLEEAEALIKALLPPGAEATRITVERNEDGSVTVTVEIRLPKGLSAGG [r13_338_TrROS_Hall]	2.99 ± 0.08 kcal/mol	1.49 ± 0.024 kcal/mol	2.31 ± 0.062 kcal/mol
SAGPPGMRMVPFTIELPGKKIEIHVMEYPNGPPQYMVEIEDPNGKPKWTIMVTGPEARDLLEKAGIKFSAGG [r19_90_TrROS]	0.438 ± 0.1 kcal/mol	1.23 ± 0.14 kcal/mol	1.01 ± 0.1 kcal/mol
SAGGSAGGPKHVEIVITPDLRKEIEENQKEGDPPTLMEIAKEIAREFRANGMPVDIKILPPEDFSAGGSAGG [r6_815_TrROS]	0.216 ± 0.07 kcal/mol	0.29 ± 0.31 kcal/mol	0.452 ± 0.23 kcal/mol
MVLKVTIEITVTHPANPGKTEKLTIVVEAPTLEEALAAALEEIRRRLGLPPGAKVTVKVTVELVELPEEDLS [r1_149_TrROS_Hall]	4.5 ± 0.18 kcal/mol	5.63 ± 0.18 kcal/mol	5.99 ± 0.5 kcal/mol
SAGGMTITIPPSVPDADVERIVEEAEATFPQPVTLTRDPGRGRWTLTFDGPEDERREAIEALAARLASAGGS [r16_227_JUSTAS]	0.0735 ± 0.14 kcal/mol	0.565 ± 0.19 kcal/mol	0.434 ± 0.12 kcal/mol
SAGPWITIPFKVKSLEEARNIIREIAQTFGLPMKVEDIQVTEDQLEKNREPGDPIRITVRYPNGREIEISAG [r5_503_TrROS]	1.64 ± 0.065 kcal/mol	1.69 ± 0.11 kcal/mol	1.64 ± 0.11 kcal/mol

Sequence	folding stability dG unfold [1]	folding stability dG unfold [2]	folding stability dG unfold [3]
SAGGSAGGMELISEKPAKVKYGDKEAEVWVKLVKIPNTDEVLVTLYFPGSGKPRIIPAKDVEIESAGGSAGG [r6_263_TrMRF]	0.655 ± 0.1 kcal/mol	0.836 ± 0.18 kcal/mol	0.836 ± 0.19 kcal/mol
SAGGSAGGSAGGSMKEVTITLTDPETGKVSTLVLKLSPEEIEKAAEELAKSSGKKVTIRSAGGSAGGSAGGS [r4_301_JUSTAS]	1.04 ± 0.068 kcal/mol	1.99 ± 0.066 kcal/mol	1.78 ± 0.13 kcal/mol
SAGGSAGGSAGMKIEYEHDPNRNWYTVKIDFPNGPPKIPIQVPHDDMPPNDLRDWAKELFSAGGSAGGSAGG [r11_557_TrROS]	0.459 ± 0.12 kcal/mol	0.58 ± 0.33 kcal/mol	0.475 ± 0.28 kcal/mol
SAGGSAGGSAGPPDQNFLIKIKWQENGKKREHTIPIPAENLDEVLDELSPWPGLEVEIIPSAGGSAGGSAGG [r17_50_TrROS]	-0.408 ± 0.085 kcal/mol	-0.295 ± 0.11 kcal/mol	-0.376 ± 0.19 kcal/mol
SAGGSAGGWITPDAAKEFADKWGFDDVNVEVLDVDPNNNYVRVKVTARNPKNGNERPIGEFWFPSAGGSAGG [r6_699_TrROS]	0.585 ± 0.056 kcal/mol	1.46 ± 0.045 kcal/mol	1.2 ± 0.066 kcal/mol
SAGGSAGGSAGGRLVVFEVKKDELNITGPGEARVVSVEELPGDRVRVVVEVPEGAVPGLASAGGSAGGSAGG [r17_48_TrMRF]	0.324 ± 0.084 kcal/mol	1.27 ± 0.066 kcal/mol	0.935 ± 0.12 kcal/mol
SAGGSIEEAKKAAEKLAKEIAEKKGWTVKSVEVEKLPDGTVRATITIKYPDGSEETIEVTIPPNTPLSAGGS [r8_175_JUSTAS]	2.63 ± 0.11 kcal/mol	0.954 ± 0.039 kcal/mol	1.91 ± 0.14 kcal/mol
SAGGSAPWRPITITIPGSWEEIKELAKKFVNDGNIRDVEVEPVPDPGYYKVTVWVRDPNGNWYLVFSAGGSA [r15_177_TrROS]	2.23 ± 0.16 kcal/mol	3.204 ± 0.031 kcal/mol	2.9 ± 0.2 kcal/mol
SAGGSAGGIRINPENGQIYFPLENGKAKSVPFKPGQEREIPNGWRITIKPDPPGPWEIEVKPLDSAGGSAGG [r6_296_TrROS]	-0.509 ± 0.42 kcal/mol	-0.578 ± 0.61 kcal/mol	-0.499 ± 0.22 kcal/mol
SAGGGYRAVAVFERPDGRREVVFIEFESEEEALREAEEIARRFGLRLKELRVYPVEPLPPVRPELAGSAGGS [r8_364_TrMRF]	3.49 ± 0.089 kcal/mol	5.17 ± 0.083 kcal/mol	4.88 ± 0.09 kcal/mol
SKIKIEVDEETGVITVTVEVDNLSEEEILDKLKEELEKLGFEVEVKVVKIEEVNGKVVVTVEIKIKPEKLSA [r9_347_TrROS_Hall]	1.75 ± 0.11 kcal/mol	0.9 ± 0.073 kcal/mol	1.45 ± 0.093 kcal/mol
SAGGSGPMTRSITITVTPEIVRDEKGNVTATKYTVTITRSPEVSPEEVEALAAELNAAGIPTTVTPSAGGSA [r2_456_JUSTAS]	1.23 ± 0.026 kcal/mol	1.65 ± 0.099 kcal/mol	1.5 ± 0.083 kcal/mol
SAGGTMKYDVEQKYKYPDPDGNPGGEGKHTQEVEVPPPPVIIIPPNDRELAKELAEKFGIPITPDDIASAGG [r19_315_TrROS]	0.854 ± 0.18 kcal/mol	0.5 ± 0.25 kcal/mol	0.609 ± 0.39 kcal/mol
SAGGMEIVSSGSLEEAIALLKENPNTTITVTLPDGTTVVIKVTQNGEGPYIYDVSTEPPAAAPSPSLVSAGG [r13_56_JUSTAS]	2.15 ± 0.096 kcal/mol	1.1 ± 0.038 kcal/mol	1.66 ± 0.079 kcal/mol
SAGGSAKEVKIKFTRNPDGTLTMEITFEDGYVIRKTFTVKNGKLTEKVEVFPVKLDPETGKLVLLPSAGGSA [r15_746_TrROS_Hall]	2.52 ± 0.078 kcal/mol	2.98 ± 0.033 kcal/mol	2.84 ± 0.087 kcal/mol
SAGGSMETRETLEERTLPNGEKVLTTTTTYPDGTVTTRTTVIHGGTSTVTTTTTPAAPVPGPAPARASAGGS [r16_523_JUSTAS]	0.422 ± 0.028 kcal/mol	2.01 ± 0.059 kcal/mol	1.55 ± 0.085 kcal/mol
SAGSPLTLSEKTSYDPSTGVTTRTFTFPDGTTRTTATVTVPGTGTLLTSTDFTQSPGTLTQSSGVAPLSAGG [r19_394_JUSTAS]	0.392 ± 0.019 kcal/mol	0.706 ± 0.031 kcal/mol	0.616 ± 0.025 kcal/mol
SAMPAENMTPEEAAELALAYVERFRAEVEALGGPIPADTEIVVPVTLEGPPVEIKITFINPDEVEVEVASAG [r14_501_TrMRF]	1.46 ± 0.15 kcal/mol	1.17 ± 0.09 kcal/mol	1.34 ± 0.17 kcal/mol
SAGGLTVTLTDSSGNPVTVETELLPDNTLVLTITRTTPSGKTYTRTGIVSIDNTTINLVSFSEWTEDPSAGG [r13_451_JUSTAS]	2.79 ± 0.097 kcal/mol	3.25 ± 0.08 kcal/mol	3.02 ± 0.16 kcal/mol
SAGGSAGGSWFIRVEYKRPNGQPKTLQIPVPRDQLKKMSIDEIKDRAENLGLPPNVKIEWYPFSAGGSAGGS [r12_742_TrROS]	1.04 ± 0.032 kcal/mol	1.78 ± 0.061 kcal/mol	1.55 ± 0.056 kcal/mol
SAGGSAGGSAQPIPIKIRIRMRDDGKPQTFTFEVPVKPGATESTILDKIMKKFPGFRHIEIESAGGSAGGSA [r18_195_TrROS]	1.06 ± 0.035 kcal/mol	0.961 ± 0.066 kcal/mol	1.06 ± 0.085 kcal/mol
